Results as given in patent US20240141039A1 (AGENUS, published 2024).
Values belong to the binder of their own block, whether it stands above or below them.

How the values were obtained:
[1] = molecular target: T1, wild type full-length cynomolgus monkey CD96 isoform 2 expressed on CHO cells (cynomolgus monkey, UniProt A0A2K5TWV6 22-569); experiment: flow cytometry on CHO cells expressing cynomolgus CD96 isoform 2, PE anti-human IgG Fc detection
T1 construct: whole, on cells; also called cynomolgus CD96-CHO cells; cynomolgus CD96-CHO (isoform 2)
T1 sequence: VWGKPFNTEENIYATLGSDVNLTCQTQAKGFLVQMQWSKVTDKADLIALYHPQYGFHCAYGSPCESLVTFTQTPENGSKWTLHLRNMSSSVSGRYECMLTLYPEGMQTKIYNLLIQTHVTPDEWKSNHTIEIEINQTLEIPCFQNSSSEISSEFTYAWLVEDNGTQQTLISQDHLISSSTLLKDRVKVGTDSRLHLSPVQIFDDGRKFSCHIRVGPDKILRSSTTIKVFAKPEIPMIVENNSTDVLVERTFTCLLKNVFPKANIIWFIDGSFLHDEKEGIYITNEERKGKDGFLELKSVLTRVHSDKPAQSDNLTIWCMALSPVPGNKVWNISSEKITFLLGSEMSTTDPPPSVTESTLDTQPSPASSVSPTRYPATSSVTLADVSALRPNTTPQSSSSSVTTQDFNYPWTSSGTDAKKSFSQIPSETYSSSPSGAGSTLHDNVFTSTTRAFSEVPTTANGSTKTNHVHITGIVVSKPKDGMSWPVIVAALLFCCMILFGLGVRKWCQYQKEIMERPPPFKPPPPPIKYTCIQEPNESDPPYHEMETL

[2] = molecular target: T2, wild type full-length cynomolgus monkey TIGIT expressed on CHO cells (cynomolgus monkey, UniProt A0A7N9I9V4 89-312); experiment: flow cytometry, blocking of human CD155-Fc-PE binding to CHO cells expressing cynomolgus TIGIT
T2 construct: whole, on cells; also called cynomolgus TIGIT-CHO cells
T2 sequence (A0A7N9I9V4 entry or part of it): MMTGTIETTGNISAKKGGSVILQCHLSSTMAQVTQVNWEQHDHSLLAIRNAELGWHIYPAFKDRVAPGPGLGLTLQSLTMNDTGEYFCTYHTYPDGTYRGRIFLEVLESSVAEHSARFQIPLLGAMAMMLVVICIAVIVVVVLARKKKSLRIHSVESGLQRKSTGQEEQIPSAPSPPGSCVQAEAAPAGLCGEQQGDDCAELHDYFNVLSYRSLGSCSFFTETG
Procedure: A 4× concentrated intermediate stock of each multispecific molecule was prepared in a microplate. Antibodies were serially diluted 1-to-4 in FACS buffer. […] Lastly, 25 μL of cynomolgus TIGIT-CHO cells, prepared as described above, were added to each well. After a 30-minute incubation on ice, the cells were washed twice with cold FACS Buffer, and the cells were analyzed by flow cytometry (BD LSR Fortessa Flow Cytometer). The data were analyzed using the FlowJo software by sequentially gating on the FSC-A vs. SSC-A and SSC-H vs. SSC-A. Mean fluorescence intensity (MFI) values for PE were calculated, and the data were plotted by GraphPad Prism software and analyzed as described above.

[3] = molecular target: T3, wild type full-length human TIGIT expressed on cells (human, UniProt Q495A1 22-244); experiment: flow cytometry on CHO cells expressing human TIGIT, PE anti-human IgG Fc detection
T3 construct: whole, on cells; also called human TIGIT-CHO; human TIGIT CHO cells
T3 sequence (looked up): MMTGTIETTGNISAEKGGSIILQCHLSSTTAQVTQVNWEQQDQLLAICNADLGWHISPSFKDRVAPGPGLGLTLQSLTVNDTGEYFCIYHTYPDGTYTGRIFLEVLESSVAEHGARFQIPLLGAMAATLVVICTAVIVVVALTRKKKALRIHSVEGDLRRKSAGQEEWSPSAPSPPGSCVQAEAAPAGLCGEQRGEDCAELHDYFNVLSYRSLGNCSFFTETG
Procedure: The ability of anti-TIGIT antibodies to bind to wild type human TIGIT expressed on the surface of CHO cells was assessed. Briefly, CHO cells were transfected with a vector encoding wild type human TIGIT (human TIGIT-CHO), and clones stably expressing TIGIT were selected.
For the antibody binding assay, a frozen aliquot of human TIGIT-CHO cells was thawed at 37° C. and then transferred to a tube containing DPBS supplemented with 0.5% Bovine Serum Albumin and 0.05% Sodium Azide (FACS Buffer). Cells were centrifuged at 300 g for five minutes. The supernatant was discarded, and cells resuspended in FACS buffer were seeded in a 96-well U-bottom tissue culture plate at a density of […] cells per well in 50 μL. In a separate microplate, a 2× concentrated intermediate stock of each antibody was prepared. Antibodies were serially diluted 1-to-4 in FACS buffer. A total of 11 working dilutions ranging from 60 μg/mL to 0.000057 μg/mL were prepared. […] After a 30-minute incubation on ice, the cells were washed twice with cold FACS Buffer, and the cells were analyzed by flow cytometry (BD LSR Fortessa Flow Cytometer). The data were analyzed using the FlowJo software by sequentially gating the FSC-A vs. SSC-A, and SSC-H vs. SSC-A. Mean fluorescence intensity (MFI) values for PE were calculated, and the data were plotted by GraphPad Prism software.

[4] = molecular target: T4, full-length ECD of cynomolgus monkey TIGIT (His-tagged) (cynomolgus monkey); experiment: SPR Biacore T200, Protein A capture, 1:1 model, experiment #1
T4 construct: also called His-tagged cynomolgus monkey TIGIT; cyno TIGIT extracellular domain
Procedure: (§1) Briefly, surface plasmon resonance experiments were performed using a Biacore T200 instrument, and the association rate (kₐ), dissociation rate (kd), and dissociation constant (KD) were calculated from each experiment using a 1:1 binding model with Biacore T200 Evaluation Software.
(§2) Antibodies were captured using a 30-sec injection at a flow rate of 10 μl/min to reach about 500 resonance units (RUs). […] The sensor chip was regenerated between cycles with two 30-sec injections of 10 mM glycine, pH 1.5. Sensorgrams were evaluated and fit to a simple Langmuir 1:1 interaction model using the global data analysis option of BIAevaluation 3.0 software. Data quality was verified by visually inspecting deviations and curve fitting, and by evaluating the parameters of Rₘₐₓ, Chi2, and Tc.

[5] = molecular target: T5, full-length ECD of human TIGIT (His-tagged) (human); experiment: as above
T5 construct: also called His-tagged human TIGIT; human TIGIT extracellular domain
T5 chain: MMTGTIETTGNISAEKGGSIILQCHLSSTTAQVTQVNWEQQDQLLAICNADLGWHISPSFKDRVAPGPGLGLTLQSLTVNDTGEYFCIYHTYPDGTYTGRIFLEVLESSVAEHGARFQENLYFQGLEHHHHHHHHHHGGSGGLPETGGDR
Procedure: as §1, §2

[6] = molecular target: CD8+ T cells (CD3-stimulated; Day 4); experiment: flow cytometry on activated primary human T cells, gated CD8+, donor 2; PE anti-human IgG detection
Procedure: A total of 8 dilutions ranging from 50 μg/mL to 0.000005 μg/mL were prepared. After four days, the sample plates were centrifuged for two minutes at 2000 rpm, and supernatants were discarded. Samples were blocked with FcγR Block prepared in FACs buffer at 5 μL per 100 μL test for 10 minutes. Sample plates were then centrifuged for two minutes at 2000 rpm, and the supernatant was discarded. […] Sample plates were incubated for 30 minutes at 4° C. Cells were washed by addition of cold sample buffer and centrifuged for two minutes at 2000 rpm, and the supernatant was discarded. This wash was repeated once.
Cells were then resuspended in a cocktail of fluorescently labeled antibodies. A cocktail of fluorescently labeled antibodies sufficient for all samples was prepared in FACs buffer. 100 μL of antibody per well was then added to a round-bottom 96-well plate. The sample plate was incubated for 20 minutes on ice. Cells were washed by addition of cold sample buffer, centrifuged for two minutes at 2000 rpm, and supernatants discarded. […]
Antibody binding was measured by flow cytometry using a BD LSR Fortessa Flow Cytometer. […] 100,000 events were recorded for each sample. Samples were analyzed by sequentially gating on the following populations: FSC-A vs. SSC-A, FSC-H vs. FSC-A, SSC-A vs. LIVE/DEAD, CD4 vs. CD8, and SSC vs. CD25. Mean fluorescence intensity (MFI) was calculated.

- EC50 (read off the curve) [1]: ~1 µg/mL
B1: anti-TIGIT×CD96 multispecific molecule BA123 (bispecific antibody, human IgG1, kappa, lambda)
heavy 1: QVQLVQSGAEVKKPGASVKVSCKASGYTFTSYGISWVRQAPGQGLEWMGWISAYNANTNYAQKLQGRVTMTTDTSTSTAYMELRSLRSDDTAVYYCARSAGVLGGMDVWGRGTLVTVSSASTKGPSVFPLAPSSKSTSGGTAALGCLVKDYFPEPVTVSWNSGALTSGVHTFPAVLQSSGLYSLSSVVTVPSSSLGTQTYICNVNHKPSNTKVDKRVEPKSCDKTHTCPPCPAPELLGGPDVFLFPPKPKDTLMISRTPEVTCVVVDVSHEDPEVKFNWYVDGVEVHNAKTKPREEQYNSTYRVVSVLTVLHQDWLNGKEYKCKVSNKALPAPIEKTISKAKGQPREPQVYTLPPSREEMTKNQVSLSCAVKGFYPSDIAVEWESNGQPENNYKTTPPVLDSDGSFFLVSKLTVDKSRWQQGNVFSCSVMHEALHNHYTQKSLSLSPG
light 1: not shown
heavy 2: EVQLVQSGAEVKKPGSSVKVSCKASGYTFASYGISWVRQAPGQGLEWMGGITPFFNRVDVAEKFQGRVTITADKSTSTAYIELSSLRSEDTAVYYCARDLRRGGVGDAFDIWGRGTLVTVSSASTKGPSVFPLAPSSKSTSGGTAALGCLVKDYFPEPVTVSWNSGALTSGVHTFPAVLQSSGLYSLSSVVTVPSSSLGTQTYICNVNHKPSNTKVDKRVEPKSCDKTHTCPPCPAPELLGGPDVFLFPPKPKDTLMISRTPEVTCVVVDVSHEDPEVKFNWYVDGVEVHNAKTKPREEQYNSTYRVVSVLTVLHQDWLNGKEYKCKVSNKALPLPEEKTISKAKGQPREPQVYTLPPSREEMTKNQVSLWCLVKGFYPSDIAVEWESNGQPENNYKTTPPVLDSDGSFFLYSKLTVDKSRWQQGNVFSCSVMHEALHNHYTQKSLSLSPG
light 2: QSALTQPRSVSGSPGQSVTISCTGTSPDVGSHAYRSWYQQHPGKAPKLMIYEVSYRPSGVSNRFSGSKSGNTASLTISGLQAEDEADYYCSSYPPSSATVFGAGTKLTVLGQPKAAPSVTLFPPSSEELQANKATLVCLISDFYPGAVTVAWKADSSPVKAGVETTTPSKQSNNKYAASSYLSLTPEQWKSHRSYSCQVTHEGSTVEKTVAPTEC
notes: copies: 1 + 1 + 1 + 1

- IC50 (read off the curve) [2]: ~0.2 µg/mL
- EC50 (read off the curve) [3]: ~0.008 µg/mL
- Kd [4]: 3.8 nM
- koff [4]: 0.00127 s⁻¹
- kon [4]: 334000 M⁻¹ s⁻¹
- Kd [5]: 0.535 nM
- koff [5]: 0.000413 s⁻¹
- kon [5]: 773000 M⁻¹ s⁻¹
B2: anti-TIGIT monospecific antibody BA148 (antibody, human IgG1, lambda)
heavy: EVQLVQSGAEVKKPGSSVKVSCKASGYTFASYGISWVRQAPGQGLEWMGGITPFFNRVDVAEKFQGRVTITADKSTSTAYIELSSLRSEDTAVYYCARDLRRGGVGDAFDIWGRGTLVTVSSASTKGPSVFPLAPSSKSTSGGTAALGCLVKDYFPEPVTVSWNSGALTSGVHTFPAVLQSSGLYSLSSVVTVPSSSLGTQTYICNVNHKPSNTKVDKRVEPKSCDKTHTCPPCPAPELLGGPDVFLFPPKPKDTLMISRTPEVTCVVVDVSHEDPEVKFNWYVDGVEVHNAKTKPREEQYNSTYRVVSVLTVLHQDWLNGKEYKCKVSNKALPLPEEKTISKAKGQPREPQVYTLPPSREEMTKNQVSLTCLVKGFYPSDIAVEWESNGQPENNYKTTPPVLDSDGSFFLYSKLTVDKSRWQQGNVFSCSVMHEALHNHYTQKSLSLSPGK
light: QSALTQPRSVSGSPGQSVTISCTGTSPDVGSHAYRSWYQQHPGKAPKLMIYEVSYRPSGVSNRFSGSKSGNTASLTISGLQAEDEADYYCSSYPPSSATVFGAGTKLTVLGQPKAAPSVTLFPPSSEELQANKATLVCLISDFYPGAVTVAWKADSSPVKAGVETTTPSKQSNNKYAASSYLSLTPEQWKSHRSYSCQVTHEGSTVEKTVAPTEC
notes: IgG1; also called anti-TIGIT IgG1 antibody BA148

- EC50 (read off the curve) [6]: ~0.06 µg/mL
B3: anti-TIGIT×CD96 multispecific molecule BA127 (bispecific antibody, human IgG1, kappa, lambda)
heavy 1: QVQLVQSGAEVKKPGASVKVSCKASGYTFTTYALHWVRQAPGQRLEWMGWINTGSGDTKYSQKFQGRVTITRDTSASTAYMELSSLRSEDTAVYYCARSLGVYYGMDVWGQGTLVTVSSASTKGPSVFPLAPSSKSTSGGTAALGCLVKDYFPEPVTVSWNSGALTSGVHTFPAVLQSSGLYSLSSVVTVPSSSLGTQTYICNVNHKPSNTKVDKRVEPKSCDKTHTCPPCPAPELLGGPDVFLFPPKPKDTLMISRTPEVTCVVVDVSHEDPEVKFNWYVDGVEVHNAKTKPREEQYNSTYRVVSVLTVLHQDWLNGKEYKCKVSNKALPAPIEKTISKAKGQPREPQVYTLPPSREEMTKNQVSLSCAVKGFYPSDIAVEWESNGQPENNYKTTPPVLDSDGSFFLVSKLTVDKSRWQQGNVFSCSVMHEALHNHYTQKSLSLSPG
light 1: not shown
heavy 2: EVQLVQSGAEVKKPGSSVKVSCKASGYTFASYGISWVRQAPGQGLEWMGGITPFFNRVDVAEKFQGRVTITADKSTSTAYIELSSLRSEDTAVYYCARDLRRGGVGDAFDIWGRGTLVTVSSASTKGPSVFPLAPSSKSTSGGTAALGCLVKDYFPEPVTVSWNSGALTSGVHTFPAVLQSSGLYSLSSVVTVPSSSLGTQTYICNVNHKPSNTKVDKRVEPKSCDKTHTCPPCPAPELLGGPDVFLFPPKPKDTLMISRTPEVTCVVVDVSHEDPEVKFNWYVDGVEVHNAKTKPREEQYNSTYRVVSVLTVLHQDWLNGKEYKCKVSNKALPLPEEKTISKAKGQPREPQVYTLPPSREEMTKNQVSLWCLVKGFYPSDIAVEWESNGQPENNYKTTPPVLDSDGSFFLYSKLTVDKSRWQQGNVFSCSVMHEALHNHYTQKSLSLSPG
light 2: QSALTQPRSVSGSPGQSVTISCTGTSPDVGSHAYRSWYQQHPGKAPKLMIYEVSYRPSGVSNRFSGSKSGNTASLTISGLQAEDEADYYCSSYPPSSATVFGAGTKLTVLGQPKAAPSVTLFPPSSEELQANKATLVCLISDFYPGAVTVAWKADSSPVKAGVETTTPSKQSNNKYAASSYLSLTPEQWKSHRSYSCQVTHEGSTVEKTVAPTEC
notes: Anti-CD96 arm = BA139, anti-TIGIT arm = BA150; copies: 1 + 1 + 1 + 1
